Results as given in US20070065444A1 (Amgen, published 2007).
Where two headings read alike, the source gives them in different places.

B1: 1.162.1 (antibody, human IgG2, V domains shown)
VH: QVQLQESGPGLVKPSQTLSLICTVSGGSISSGEYYWSWIRQHPGKGLEWIGYIYYSGSTYYNPSLKSRLTISVDTSKNQFSLKLSSVTAADTAVYYCAREGIGAFDIWGQGTMVTVSS
VL: EIVLTQSPGTLSLSPGERATLSCRASQSVSSSYLAWYQQKPGQAPRLLIYGASSRATGIPDRFSGSGSGTDFTLTIIRLDPEDFAVYYCQRYGSSPITFGQGTRLEIK
notes: Human IgG2 kappa antibody from a hybridoma
B2: 1.183.1 (antibody, human IgG2, V domains shown)
VH: QVQLQESGPGLVKPSETLSLTCTVSGGSISSYYWSWIRQPPGKGLEWIGYIYYSGSTNYNPSLKSRVTISVDTSKNQFSLKLSSVTAADTAVYYCAREDDSSGCPYFDYWGQGTLVTASS
VL: EIVMTQSPATLSVSPGERATLSCRASQSVSSNLAWYQQKPGQAPRVLIYGASTRATGIPVRFSGSGSGTEFTLTISSLQSEDFAVYYCQQYNNWPFTFGPGTKVDIK
B3: 4.62.1 (antibody, V domains shown)
VH: QVQLQESGPGLVKPSQTLSLTCTVSGGSISSGDYYWNWIRQHPGKGLEWIGYIYYSGSTYYNPSLKSRVTISVDTSKNQFSLKLSSVTAADTAVYYCARESTDGMDVWGQGTTVTVSS
VL: not shown
notes: as for B1
B4: 4.24.1 (antibody, human IgG2, V domains shown)
VH: QVQLQESGPGLVKPSQTLSLTCTVSGGSISSNDYYWNWIRQHPGKGLEWIGYIYYSGSTYYNPSLKSRVTISVDTSKNQFSLKLSSVTAADTAVYYCARESTDGMDVWGQGTTVTVSS
VL: ENVLTQSPGTLSLSPGERATLSCRASQSVSSNYLAWYQQKPGQAPRLLIYGASSGATGIPDRFSGSGSGTDFTLTISRLEPEDFAVYYCQHYGSSPITFGQGTRLEIK
notes: as for B1
B5: 4.72.1 (antibody, human IgG2, V domains shown)
VH: QVQLQESGPGLVKPSQTLSLTCTVSGGSISSGEYYWSWIRQHPGKGLEWIGYIFYSGSTYYNPSLKSRVTISLDTSKNQFSLKLSSVTAADTAVYYCARESTDGMDVWGQGTTVTVSS
VL: EIVLTQSPGTLSLSPGERATLSCRASQSVSSSYLAWYQRKPGQAPRLLIYGVSSRATGIPDRFSGSGSGTDFTLTISRLEPEDFAVYYCQQYGSSMITFGQGTRLEIK
notes: as for B1
B6: 4.38.1 (antibody, human IgG2, V domains shown)
VH: QVQLQESGPGLVKPSQTLSLTCTVSGGSISSGDYYWSWIRQHPGKGLEWIGYIYYSGSTYYNPSLKSRVTISIDTSKNQFSLKLSSVTAADTAVYYCARERDYGGGFDYWGQGTLVTVSS
VL: not shown
notes: as for B1
B7: 4.58.1 (antibody, human IgG2, V domains shown)
VH: QVQLQESGPGLVKPSQTLSLTCTVSGGSISSGDYYWNWIRQHPGKGLEWIGYIYYSGSTYYNPSLKSRVTISVATSKNQFSLKLSSVTAADTAVYYCAREATEGFDYWGQGTLVTVSS
VL: EIVLTQSPGTLSLSPGERATLSCRASQSVSTTYLAWYQQKPGQAPRLLIYGASSRATGIPDRFSGSGSGTDFTLTISRLEPEDFALYYCQHYGTSSITFGQGTRLEIK
notes: as for B1
B8: 1.13.1 (antibody, human IgG2, V domains shown)
VH: QVHLQESGPGLVKPSETLSLTCTVSGGSVSSGDYYWNWIRQPPGKGLEWIGYIYYSGSTNYNPSLKSRITISIDTSKNQFSLKLNSVTAADTALYYCARESVAAFDYWGQGTLVTVSS
VL: EIVLTQSPGTLSLSPGERATLSCRASQSISSRYLAWYQQEPGQAPRLLIYGASSRATGIPDRFSGSGSGTDFTLTISRLEPEDFAVYYCQHYGSSPITFGQGTRLEIK
B9: 1.12.1(rWT) (antibody, human IgG2, kappa)
heavy: QVQLQESGPGLVKPSQTLSLTCTVSGGSMSSGEYYWNWIRQHPGKGLEWIGYIYYSGSTYYNPSLKSRVTISVDTSKNQFSLKLSSVTAADTAVYYCARESVAGFDYWGQGTLVTVSSASTKGPSVFPLAPCSRSTSESTAALGCLVKDYFPEPVTVSWNSGALTSGVHTFPAVLQSSGLYSLSSVVTVPSSNFGTQTYTCNVDHKPSNTKVDKTVERKCCVECPPCPAPPVAGPSVFLFPPKPKDTLMISRTPEVTCVVVDVSHEDPEVQFNWYVDGVEVHNAKTKPREEQFNSTFRVVSVLTVVHQDWLNGKEYKCKVSNKGLPAPIEKTISKTKGQPREPQVYTLPPSREEMTKNQVSLTCLVKGFYPSDIAVEWESNGQPENNYKTTPPMLDSDGSFFLYSKLTVDKSRWQQGNVFSCSVMHEALHNHYTQKSLSLSPGK
light: not shown
notes: mAb 1.12.1 expressed as a recombinant mAb; also called recombinant wild-type mAb 1.12.1
B10: 1.12.1 (antibody, human IgG2, kappa)
heavy: QVQLQESGPGLVKPSQTLSLTCTVSGGSMSSGEYYWNWIRQHPGKGLEWIGYIYYSGSTYYNPSLKSRVTISVDTSKNQFSLKLSSVTAADTAVYYCARESVAGFDYWGQGTLVTVSSASTKGPSVFPLAPCSRSTSESTAALGCLVKDYFPEPVTVSWNSGALTSGVHTFPAVLQSSGLYSLSSVVTVPSSNFGTQTYTCNVDHKPSNTKVDKTVERKCCVECPPCPAPPVAGPSVFLFPPKPKDTLMISRTPEVTCVVVDVSHEDPEVQFNWYVDGVEVHNAKTKPREEQFNSTFRVVSVLTVVHQDWLNGKEYKCKVSNKGLPAPIEKTISKTKGQPREPQVYTLPPSREEMTKNQVSLTCLVKGFYPSDIAVEWESNGQPENNYKTTPPMLDSDGSFFLYSKLTVDKSRWQQGNVFSCSVMHEALHNHYTQKSLSLSPGK
light: not shown
notes: Hybridoma-derived human IgG2 kappa antibody; also called mAb 1.12.1 isolated from the hybridoma; hybridoma LN 15916, ATCC PTA-6808
B11: 1.12.1(D19A) (antibody, human IgG2, kappa)
heavy: QVQLQESGPGLVKPSQTLSLTCTVSGGSMSSGEYYWNWIRQHPGKGLEWIGYIYYSGSTYYNPSLKSRVTISVDTSKNQFSLKLSSVTAADTAVYYCARESVAGFDYWGQGTLVTVSSASTKGPSVFPLAPCSRSTSESTAALGCLVKDYFPEPVTVSWNSGALTSGVHTFPAVLQSSGLYSLSSVVTVPSSNFGTQTYTCNVDHKPSNTKVDKTVERKCCVECPPCPAPPVAGPSVFLFPPKPKDTLMISRTPEVTCVVVDVSHEDPEVQFNWYVDGVEVHNAKTKPREEQFNSTFRVVSVLTVVHQDWLNGKEYKCKVSNKGLPAPIEKTISKTKGQPREPQVYTLPPSREEMTKNQVSLTCLVKGFYPSDIAVEWESNGQPENNYKTTPPMLDSDGSFFLYSKLTVDKSRWQQGNVFSCSVMHEALHNHYTQKSLSLSPGK
light: not shown
notes: Recombinant 1.12.1 with the single light-chain mutation D19A
B12: 1.11.1 (antibody, human IgG2, V domains shown)
VH: QVQLVESGGGVVQPGRSLRLSCAASGFTFSSHGMYWVRQAPGKGLEWVAAIWYDGSNKYYADSVKGRFTISRDNSKNTLYLQMNSLRAEDTAVYYCARDQEQWPDVFDIWGQGTMVTVSS
VL: DIQMTQSPSSLSASVGDRVTITCRASQGIRNYLAWFQQKPGKAPKSLIYGASSLQSGVPSKFSGSGSGTDFTLTISSLQPEDFATYYCQQYNSYPLTFGGGTKVEIK
notes: as for B1

Tests used:
[1] = biological target: T1, cynomologus ALK-1/Fc fusion protein (cynomolgus monkey, UniProt Q5RAN0 22-118 (Pongo abelii entry)); test: SPR (BIAcore 3000), cALK-1/Fc immobilized, antibody as analyte
T1 construct: also called cALK-1/Fc; not shown: Fc part and any linker not described
T1 chain: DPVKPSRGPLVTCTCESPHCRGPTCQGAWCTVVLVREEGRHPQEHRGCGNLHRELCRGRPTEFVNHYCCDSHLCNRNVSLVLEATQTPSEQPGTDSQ

[2] = biological target: T2, Cynomolgus monkey ALK-1 (full-length, cell surface) (cynomolgus monkey, UniProt P37023 22-503 (human entry)); test: FACS on 293 cells overexpressing Cyno ALK-1
T2 construct: also called Cyno ALK-1
T2 chain: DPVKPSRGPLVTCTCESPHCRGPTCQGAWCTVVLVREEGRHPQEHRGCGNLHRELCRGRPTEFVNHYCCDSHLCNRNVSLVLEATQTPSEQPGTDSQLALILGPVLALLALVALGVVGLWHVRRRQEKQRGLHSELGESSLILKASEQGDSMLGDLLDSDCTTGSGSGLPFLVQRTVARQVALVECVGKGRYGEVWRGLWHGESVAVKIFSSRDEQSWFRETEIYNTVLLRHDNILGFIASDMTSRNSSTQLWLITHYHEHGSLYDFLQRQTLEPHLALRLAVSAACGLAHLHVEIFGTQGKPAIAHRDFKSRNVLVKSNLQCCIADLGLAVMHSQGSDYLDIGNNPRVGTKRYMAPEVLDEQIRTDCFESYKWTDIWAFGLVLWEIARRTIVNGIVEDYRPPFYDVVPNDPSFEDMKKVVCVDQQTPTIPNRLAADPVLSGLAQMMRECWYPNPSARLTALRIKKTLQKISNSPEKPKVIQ

[3] = biological target: T3, human ALK-1 (full-length, cell surface) (human, UniProt P37023 22-503); test: cell-based or functional assay
[4] = biological target: T4, recombinant human ALK-1/Fc fusion protein (human, UniProt P37023 22-118); test: SPR (BIAcore 3000), hALK-1/Fc immobilized, antibody as analyte
T4 construct: range 22-118; Disulfide-linked homodimer; also called hALK-1/Fc; recombinant human ALK-1/Fc chimera; not shown: Fc region of human IgG

[5] = biological target: T3, human ALK-1 (full-length, cell surface); test: FACS on 293 cells overexpressing human ALK-1
monomeric ALK-ECD = biological target: T5, monomeric ALK-ECD (human, UniProt P37023 22-118); test: SPR (BIAcore 3000), antibody immobilized, monomeric ALK-ECD as analyte (Example 8, different ECD preparation)
T5 construct: also called ALK-1 ECD His-Tag protein; Human ALK-1 ECD His-Tag Protein

[6] = biological target: T3, human ALK-1 (full-length, cell surface); test: FACS, 293 stable cells overexpressing full-length human ALK-1, anti-human kappa R-PE secondary, geometric mean against mAb concentration
[7] = biological target: T2, Cynomolgus monkey ALK-1 (full-length, …); test: FACS, 293 stable cells overexpressing full-length Cyno ALK-1, anti-human kappa R-PE secondary, geometric mean against mAb concentration
[8] = biological target: T2, Cynomolgus monkey ALK-1 (full-length, …); test: FACS on 293 cells overexpressing Cyno ALK-1
[9] = biological target: T4, recombinant human ALK-1/Fc fusion …; test: SPR (BIAcore 3000) cross-competition on immobilized human ALK-1/Fc chimera

Binder	Kd [2] [nM]	ID1 Taqman IC50 [3] [nM]	pSmad1 Western IC50 nM [3] [nM]	Kd [5] [nM]	other results
B1	3	75	15	5.6	Avidity [1]: 62 pM; Avidity [4]: 18 pM; koff [4]: 1.1e-05 s⁻¹
B2		58	17		
B3					Avidity [1]: 19 pM; Avidity [4]: 9.6 pM
B4	3.1	100	82	7.6	
B5	3.8	21	35	6.4	Kd (monomeric ALK-ECD): 0.8 nM; koff (monomeric ALK-ECD): 2.5e-05 s⁻¹; kon (monomeric ALK-ECD): 32000 M⁻¹ s⁻¹
B6		87	52	9.3	Avidity [1]: 150 pM; Avidity [4]: 100 pM
B7		14	15	14	
B8		100	87		
B9					EC50 (read off the curve) [6]: ~5 nM; EC50 (read off the curve) [7]: ~5 nM
B10	2				Kd [8]: 2 nM
B11					EC50 (read off the curve) [6]: ~5 nM; Kd [8]: 3.8 nM; EC50 (read off the curve) [7]: ~3 nM
B12					binding result [9]: binds
